Like-named read-outs stand apart in the source and are kept apart here.
Experiments:
[1] = target: the molecule itself
native gel or EMSA = target: the molecule itself; assay: native gel or EMSA

| Protein | stoichiometry N [1] | stoichiometry N (native gel or EMSA) |
| --- | --- | --- |
| ELF4 (expressed from a plasmid; tag not stated for the experiment) (natural protein) not shown | 2 |  |
| ELF4 (endogenous, human cells) (natural protein) not shown |  | 2 |
| ELF4 (endogenous, mouse cells) (natural protein) not shown |  | 2 |

— publication PMC3939855 (Nature immunology, 2013)
